Measurements as given in article PMC5361862, “Insights into ClpXP proteolysis: heterooligomerization and partial deactivation enhance chaperone affinity and substrate turnover in Listeria monocytogenes” (Chemical Science, 2016).
Each block holds one compound with its values, some of them ahead of it. Where a SMILES comes first, the peptide text is derived from it. [ ]: non-standard residue; d: D form. The star is where a group is joined. Phe(3,4-Cl2) = N[C@@H](Cc1ccc(Cl)c(Cl)c1)C(=O)O; hArg = N=C(N)NCCCC[C@H](N)C(=O)O; Aoc(2) = CCCCCC[C@H](N)C(=O)O; CH2Cl = ClC*

Legend:
LmClpXP2 [1] = biological target: T1, LmClpXP2 (Listeria monocytogenes, UniProt Q9RQI6); experiment: proteolysis of GFP-SsrA, fluorescence; format: biochemical; details: with LmClpX; inhibitor 1, 10, 100 μM; covalent; inhibition
T1 construct: gene clpP; ClpP2 homotetradecamer (LmClpP14) with hexameric chaperone LmClpX6

LmClpP2 = biological target: T2, LmClpP2 (Listeria monocytogenes, UniProt Q9RQI6); experiment: peptidase assay, Ac-Ala-hArg-Leu-ACC hydrolysis; format: biochemical; details: 1 μM ClpP; 200 μM substrate; inhibitor 1, 10, 100 μM; no ClpX; covalent
T2 construct: gene clpP; purified homotetradecamer; construct details in ESI

LmClpXP2 [2] = biological target: T1, LmClpXP2; experiment: proteolysis of GFP-SsrA, fluorescence; format: biochemical
[3] = biological target: Listeria monocytogenes ClpP2 homotetradecamer (LmClpP2), unmodified (Listeria monocytogenes); experiment: not stated; oligomeric state of LmClpP2 after treatment with inhibitors (E2, D3, Aoc-CMK, Leu-CMK), Fig. S4; method and conditions are in the ESI
[4] = biological target: Listeria monocytogenes ClpX chaperone (LmClpX) (Listeria monocytogenes) (UniProt Q8Y7K9)
[5] = biological target: Listeria monocytogenes ClpX chaperone (LmClpX) (Listeria monocytogenes) (UniProt Q8Y7K9); remark: listed apart in the source
[6] = biological target: LmClpP2 treated with Leu-CMK (Listeria monocytogenes); experiment: not stated; oligomeric state of LmClpP2 after treatment with inhibitors (E2, D3, Aoc-CMK, Leu-CMK), Fig. S4; method and conditions are in the ESI
[7] = biological target: LmClpP2 treated with beta-lactone D3 (Listeria monocytogenes); experiment: as above
[8] = biological target: Listeria monocytogenes ClpX chaperone (LmClpX) (Listeria monocytogenes) (UniProt Q8Y7K9); remark: listed apart in the source
[9] = biological target: partially Aoc-CMK-modified LmClpP2 homotetradecamer (Listeria monocytogenes); experiment: not stated; oligomeric state of LmClpP2 after treatment with inhibitors (E2, D3, Aoc-CMK, Leu-CMK), Fig. S4; method and conditions are in the ESI

Compound: COC(=O)c1ccc(OC(=O)CCc2cc(OC)c(OC)c(OC)c2)cc1 [AV170]
% activity (LmClpXP2 [1]): AV170 turned out to be the most effective inhibitor against each complex | % activity (LmClpP2): AV170 and both CMK inhibitors were the most effective against LmClpP2

Compound: CCCCCC[C@H](NC(=O)[C@H](CCCCNC(=N)N)NC(=O)[C@H](Cc1ccc(Cl)c(Cl)c1)NC(C)=O)C(=O)CCl [Aoc-CMK] (Ac-[Phe(3,4-Cl2)]-[hArg]-[Aoc(2)]-CH2Cl)
activity at 5 µM (LmClpXP2 [2]): 162%

Compound: Listeria monocytogenes ClpP2 homotetradecamer (LmClpP2), unmodified (enzyme)
stoichiometry N [3]: 14

Compound: LmClpP1/2 heterocomplex containing Ser98 to Ala mutations
K app from unfolding activity on GFP-LmSsrA (0.125 uM) with 0.4 uM LmClpX6 and varying concentrations of LmClpP14 (S98A heterocomplex) [4]: 224 nM

Compound: LmClpP1/2 heterooligomeric complex, wild type (LmClpP1^wt/2^wt)
K app from protease activity of LmClpXP1/2 at varying concentrations of LmClpP1/2 (LmClpP14) [5]: 85 nM

Compound: LmClpP2(S98A) homocomplex (enzyme)
K app from unfolding activity on GFP-LmSsrA (0.125 uM) with 0.4 uM LmClpX6 and varying concentrations of LmClpP14 (S98A homocomplex) [4]: 2360 nM

Other lines, results leading:

stoichiometry N [6]: 14
Compound: LmClpP2 treated with Leu-CMK (enzyme)

stoichiometry N [7]: 14
Compound: LmClpP2 treated with beta-lactone D3 (enzyme)

protease activity (GFP-SsrA degradation) of LmClpXP2 at incremental Aoc-CMK concentrations, DMSO control as 100%; strongest at 5 uM Aoc-CMK, abolished at 50 uM [8]: 162% | stoichiometry N [9]: 14
Compound: partially Aoc-CMK-modified LmClpP2 homotetradecamer (enzyme)
